Assay results from the supplement of paper PMC7125110.
± gives the standard error. Variants at the floor of the assay were thinned out.

B1: glmS ribozyme (parent)
chain: AUAAAAGCGCCAGAACUACAGAAAUGUAGUUGACGAGGAGGAGGUUUAUCGAAUUUUCGGCGGAUGCCUCCAAA

Key:
Details in all cases: with glucosamine-6-phosphate
[1] = variants of: B1; test: self-cleavage kobs at 40 uM GlcN6P; higher = faster cleavage; RNA array
Summary of the method: (§1)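 Sequenced MiSeq chips were the platform: E. coli RNA polymerase transcribed barcoded ribozyme variants on them in situ, and a hybridised Cy3 probe tracked these at 37 °C. After glucosamine-6-phosphate (40 μM to 10 mM) in HEPES/KCl/Mg(OAc)2 buffer was flowed in, tiles were imaged over ~14 h. Signals normalised to baseline and to non-cleaving reference variants were reduced to per-tile medians and fit to one- or two-exponential decays to obtain kobs. kcat and KM were derived through weighted Michaelis–Menten fits across concentrations.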

[2] = variants of: B1; test: self-cleavage kobs at 160 uM GlcN6P; higher = faster cleavage; RNA array
Summary of the method: as §1

[3] = variants of: B1; test: self-cleavage kobs at 10000 uM GlcN6P; higher = faster cleavage; RNA array
Summary of the method: as §1

[4] = variants of: B1; test: self-cleavage kobs at 640 uM GlcN6P; higher = faster cleavage; RNA array
Summary of the method: as §1

[5] = variants of: B1; test: self-cleavage kobs at 2500 uM GlcN6P; higher = faster cleavage; RNA array
Summary of the method: as §1

Row | Variant | self-cleavage kobs at 40 uM GlcN6P [1] [s⁻¹] | self-cleavage kobs at 160 uM GlcN6P [2] [s⁻¹] | self-cleavage kobs at 10000 uM GlcN6P [3] [s⁻¹] | self-cleavage kobs at 640 uM GlcN6P [4] [s⁻¹] | self-cleavage kobs at 2500 uM GlcN6P [5] [s⁻¹]
1 | G32C G40A | < 1e-05 | < 1e-05 | 1.99e-05 ± 7.3e-06 | – | –
2 | A42U C71G | < 1e-05 | < 1e-05 | 3.51e-05 ± 1e-05 | – | –
3 | C10G A36C G43C | < 1e-05 | – | < 1e-05 | < 1e-05 | –
4 | A12U A36G | < 1e-05 | < 1e-05 | – | – | –
5 | A48U G60U | < 1e-05 | < 1e-05 | < 1e-05 | < 1e-05 | < 1e-05
6 | U54G U55G | 0.00108 ± 0.00018 | 0.00148 ± 0.00028 | – | 0.00673 ± 0.0015 | 0.0105 ± 0.0029
7 | C34U C61A C67G | 0.00044 ± 0.00014 | – | – | 0.000318 ± 0.00013 | –
8 | G9U G51U | < 1e-05 | < 1e-05 | < 1e-05 | < 1e-05 | –
9 | C16U C71G | 6.56e-05 ± 7.6e-06 | 0.00019 ± 2.6e-05 | 0.000726 ± 0.0001 | 0.000313 ± 4.5e-05 | 0.000215 ± 3.4e-05
10 | U47A A53G U54G | 0.000659 ± 0.00016 | – | 0.0222 ± 0.0081 | – | –
11 | G9A A42G G43U C61A | < 1e-05 | – | – | < 1e-05 | –
12 | A42U G44A U65G | < 1e-05 | < 1e-05 | < 1e-05 | < 1e-05 | < 1e-05
13 | A14C G63A | < 1e-05 | – | < 1e-05 | < 1e-05 | –
14 | A6U A36G A64U | < 1e-05 | < 1e-05 | < 1e-05 | < 1e-05 | < 1e-05
15 | C8G G38C C50A G66U | < 1e-05 | < 1e-05 | – | < 1e-05 | < 1e-05
16 | A36C C70A | 3.5e-05 ± 1.7e-05 | 0.000113 ± 3.7e-05 | – | 6.93e-05 ± 3e-05 | –
17 | A15G A52G G63U | < 1e-05 | – | < 1e-05 | – | –
18 | U31G C50G | 6.22e-05 ± 1.5e-05 | 0.000172 ± 3e-05 | 3.31e-05 ± 1.1e-05 | 0.000175 ± 4.5e-05 | 0.00013 ± 1.9e-05
19 | A12G A33G C34U A48C C71G | < 1e-05 | – | – | – | –
20 | C16G C70U | 0.000111 ± 1.4e-05 | 0.000359 ± 6.2e-05 | 0.00521 ± 0.001 | 0.000455 ± 8e-05 | 0.000561 ± 9e-05
21 | C10U C11U A64G U65A | < 1e-05 | – | – | – | –
22 | A33C A64C C68U | < 1e-05 | < 1e-05 | < 1e-05 | < 1e-05 | < 1e-05

Row | Variant | self-cleavage kobs at 40 uM GlcN6P [1] [s⁻¹] | self-cleavage kobs at 160 uM GlcN6P [2] [s⁻¹] | self-cleavage kobs at 10000 uM GlcN6P [3] [s⁻¹] | self-cleavage kobs at 640 uM GlcN6P [4] [s⁻¹] | self-cleavage kobs at 2500 uM GlcN6P [5] [s⁻¹]
23 | G43C C58A | < 1e-05 | < 1e-05 | < 1e-05 | < 1e-05 | < 1e-05
24 | G43U A64C | < 1e-05 | < 1e-05 | < 1e-05 | < 1e-05 | –
25 | U47G A64C | < 1e-05 | – | – | – | –
26 | G44C U54A U57A U65G U69G | < 1e-05 | – | < 1e-05 | – | –
27 | G37A A53G | 0.000101 ± 2.3e-05 | 0.000212 ± 3.8e-05 | 0.00615 ± 0.0014 | 0.000708 ± 0.00015 | 0.00163 ± 0.00063
28 | G32U U46G C61U | < 1e-05 | – | < 1e-05 | – | < 1e-05
29 | G7C G29U G32U A64C | < 1e-05 | – | – | – | –
30 | C19A U56G C68U | 0.000112 ± 3.6e-05 | – | 0.000435 ± 9.2e-05 | – | 0.00041 ± 7.6e-05
31 | A52U A53G C61U | < 1e-05 | – | – | – | –
32 | A12U A14U A53G | 0.000135 ± 3.3e-05 | – | 0.00411 ± 0.00079 | – | –
33 | A14C G43U | < 1e-05 | < 1e-05 | – | < 1e-05 | < 1e-05
34 | G7U G32U C67G | < 1e-05 | – | < 1e-05 | – | < 1e-05
35 | G44U G51U C67G | < 1e-05 | – | < 1e-05 | – | < 1e-05
36 | C11A A15C C50G | 0.000118 ± 3.3e-05 | 0.000386 ± 0.00017 | 4.96e-05 ± 1.5e-05 | 0.000113 ± 3.6e-05 | 7.75e-05 ± 3.1e-05
37 | G43A G63U | < 1e-05 | < 1e-05 | – | < 1e-05 | –
38 | G38U U49A C58A | < 1e-05 | – | – | – | –
39 | A6G G59A A64U | < 1e-05 | – | < 1e-05 | < 1e-05 | –
40 | G7C G13U A33G U45G | < 1e-05 | – | – | – | –
41 | A33G G37U U46G A52G G62A | < 1e-05 | – | – | – | –
42 | G9C U54A U56G G66A | < 1e-05 | – | – | – | –
43 | A39G U45C C67U | 0.000136 ± 5.9e-05 | – | 0.00434 ± 0.0011 | – | –
